Source: the supplement of paper PMC9732359
± gives the uncertainty stated by the source.

Test: protein stability index of a GFP-peptide fusion (yeast GPS) (PSI 1-4); higher = more stable; sorted into four equal gates, so the index is relative within each strain
Procedure, shortened: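 Yeast carrying a pooled library were grown to mid-log phase in leucine-free medium. Each library plasmid expresses Cherry and has a tiled 17-residue yeast protein peptide fused downstream of GFP. Cells were sorted into four equal gates by GFP/Cherry ratio, and plasmids from each gate were PCR-amplified, Illumina-sequenced and assigned to strains by barcode. Summing, across gates, the read frequency times the gate number gave each peptide's protein stability index.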

Sequence | protein stability index (doa10∆) | protein stability index (pdr5∆) | protein stability index (san1∆) | protein stability index (ubr1∆)
FGHLKLALPVFHIGYFK [RPO31] | 1.17 ± 0.073 | 1.22 ± 0.062 | 1.24 ± 0.13 | 1.13 ± 0.043
FGINTNTTKTADTKAPT [YLR335W/NUP2] | 3.4 ± 0.085 | 3.41 ± 0.073 | 3.19 ± 0.07 | 3.5 ± 0.048
FGKTVKDGPFYTGSMSL [RPC31] | 2.92 ± 0.15 | 3.17 ± 0.11 | 2.81 ± 0.086 | 2.98 ± 0.1
FGQRAVLKFAAHTGATP [RPS0A] | 2.18 ± 0.082 | 2.56 ± 0.07 | 2.45 ± 0.11 | 2.61 ± 0.067
FIANEGVHTGQFIYAGK [RPL2A] | 2.98 ± 0.22 | 2.44 ± 0.17 | 2.04 ± 0.27 | –
FIENFLTNDTFEKKLSI [YML103C/NUP188] | 3.18 ± 0.22 | 3.12 ± 0.12 | 3.2 ± 0.18 | 3 ± 0.093
FIKEIHKSIELISNLLF [YCS4] | 1.89 ± 0.047 | 2.16 ± 0.051 | 2.48 ± 0.052 | 2.46 ± 0.034
FIMVKGCIPGNRKRIVT [RPL3] | 1.39 ± 0.063 | 1.48 ± 0.08 | 1.57 ± 0.2 | 1.28 ± 0.06
FISNLPNVSDKYYLEES [NUT1] | 2.16 ± 0.098 | 1.49 ± 0.094 | – | 1.27 ± 0.076
FISSNDAFNMLSLTTVP [SNF6] | 1.7 ± 0.054 | 2.44 ± 0.063 | 2.31 ± 0.11 | 2 ± 0.06
FIYDTEKNGGLGWDLDA [FAS2] | 3.21 ± 0.088 | 2.96 ± 0.12 | 3.31 ± 0.051 | 2.52 ± 0.054
FKATHILDFGPGGASGL [FAS1] | 2.75 ± 0.08 | 3.43 ± 0.14 | – | 2.96 ± 0.21
FKLDKDTSNWELSDSWR [YGL100W/SEH1] | 3.37 ± 0.068 | 3.45 ± 0.055 | 3.39 ± 0.037 | 3.31 ± 0.042
FKRVSQTFEAKLHFKDT [NUT1] | 2.96 ± 0.082 | 3.32 ± 0.1 | 3.41 ± 0.053 | 3.19 ± 0.051
FKVQIIELLSYLVEAPW [YML103C/NUP188] | 1.71 ± 0.091 | 2.03 ± 0.12 | 1.69 ± 0.21 | 2.26 ± 0.14
FLFAPELGAINLHALSM [SWI1] | 1.84 ± 0.087 | 2.05 ± 0.08 | 2.49 ± 0.12 | 2.17 ± 0.056
FLKLVLSESPVDFEKFE [SIN4] | 2.58 ± 0.047 | 2.69 ± 0.069 | 2.66 ± 0.07 | 2.7 ± 0.067
FLKVKGLVKQHLDSFNY [RET1] | 3.09 ± 0.17 | 3.18 ± 0.1 | 2.78 ± 0.29 | 2.94 ± 0.19
FLNDVIPTTKNLRLLVE [DLS1] | 3.28 ± 0.091 | 3.16 ± 0.11 | 2.88 ± 0.081 | 3.47 ± 0.087
FLRPTYPDLCSIYDKWT [RPN1] | 2.83 ± 0.064 | 2.82 ± 0.059 | 2.35 ± 0.069 | 2.47 ± 0.046
FLSPYISTHLKTICNLL [IRR1] | 1.57 ± 0.05 | 1.76 ± 0.065 | 1.69 ± 0.1 | 1.29 ± 0.038

Sequence | protein stability index (doa10∆) | protein stability index (pdr5∆) | protein stability index (san1∆) | protein stability index (ubr1∆)
FLSSFDDVLQTIITDCA [YJL039C/NUP192] | 2.43 ± 0.045 | 2.07 ± 0.049 | 2.03 ± 0.062 | 2.38 ± 0.034
FMDETAVALAASDLVLI [SNU114] | 2.55 ± 0.062 | 2.74 ± 0.076 | 2.69 ± 0.11 | 2.21 ± 0.051
FMLSDDEGMESIEMEEE [RRI2] | 2.59 ± 0.22 | 3.78 ± 0.29 | 3.38 ± 0.097 | –
FNITDNGVRALFHSCTR [GRR1] | 1.53 ± 0.11 | 2.52 ± 0.088 | 1.09 ± 0.15 | 2.35 ± 0.054
FNQFVDYTLQDIICEDS [RPB2] | 2.72 ± 0.1 | 2.86 ± 0.083 | 2.78 ± 0.053 | 2.36 ± 0.079
FNTLVRIMSTRCMMAAQ [DIS3] | 1.53 ± 0.07 | 1.73 ± 0.058 | 1.61 ± 0.076 | 1.58 ± 0.036
FNVDDVLKFTFTGEKPI [MED8] | 3.16 ± 0.094 | 3.02 ± 0.097 | 3.29 ± 0.048 | 2.98 ± 0.068
FNYVAVGDVSNLPYLDE [QCR2] | 3.2 ± 0.095 | 3.14 ± 0.11 | 2.98 ± 0.13 | 3.11 ± 0.06
FPKTTVAALRFTAGARA [RPL18A] | 1.58 ± 0.15 | 1.47 ± 0.085 | – | 1.5 ± 0.12
FPQYKLTTFANQVMMDR [ARP7] | 2.6 ± 0.096 | 2.19 ± 0.071 | 2.03 ± 0.13 | 2.4 ± 0.06
FQHILRLLNTNVDGNIK [RPS18A] | 2.87 ± 0.05 | 2.95 ± 0.064 | 2.83 ± 0.045 | 2.59 ± 0.043
FQITLSSDDLQNCWSLI [SSN8] | 2.11 ± 0.049 | 2.33 ± 0.063 | 2.22 ± 0.062 | 1.91 ± 0.045
FQLPTTCVSMAPIQLKI [RGR1] | 1.3 ± 0.051 | 1.76 ± 0.055 | 1.78 ± 0.06 | 1.67 ± 0.039
FQNTNTRSALKLVRESE [QCR2] | 2.7 ± 0.078 | 2.94 ± 0.074 | 2.81 ± 0.088 | 2.64 ± 0.07
FRNNKNDNYSSDMENDN [REC8] | 3.44 ± 0.18 | 3.15 ± 0.23 | 3.2 ± 0.17 | 2.73 ± 0.11
FRSLFFRSYMDQEKKYG [RPB2] | 1.7 ± 0.051 | 2.14 ± 0.07 | 2.61 ± 0.078 | 2.57 ± 0.038
FRVQSQSNYGIYSSDAQ [NUT1] | 2.03 ± 0.053 | 2.51 ± 0.059 | 1.8 ± 0.074 | 2.42 ± 0.1
FSFGAATPSAKEASQED [YLR335W/NUP2] | 3.29 ± 0.062 | 3.25 ± 0.074 | 3.12 ± 0.055 | 3.16 ± 0.087
FSFGAKANEKKESDESK [YJL041W/NSP1] | 2.58 ± 0.12 | 3.38 ± 0.089 | 3.52 ± 0.078 | 3.18 ± 0.18
FSFSKSEEERKSSPISN [YOR098C/NUP1] | 2.48 ± 0.11 | 2.23 ± 0.071 | 2.41 ± 0.091 | 2.94 ± 0.084
FSLLVKAEIPPEYAKVG [SIN4] | 2.54 ± 0.063 | 2.45 ± 0.045 | 2.52 ± 0.057 | 2.72 ± 0.036
